Assay results: patent US20120058906A1 (published 2012)

Assays:
Assay in all cases: MSD ECL multi-spot, Fab 0.43 uM, blank 879;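 further: blank spot per well as comparator with Hit at signal to blank ratio of 4 or more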
[1] = biological target: T1, rHuman Notch-1/Fc Chimera, CF (R&D Systems Cat#3647-TK) (human, UniProt P46531 19-526)
T1 construct: Bought Fc chimera; Fc part of the bought chimera not given

[2] = biological target: T2, rHuman IGF-1 sR (insulin-like growth factor-1 soluble receptor), CF (R&D Systems Cat#391-GR) (human, UniProt P08069 31-932)
T2 construct: Bought soluble receptor; also called IGF-R1

[3] = biological target: T3, Recombinant Human DLL4 (R&D Systems Cat#1506-D4/CF) (human, UniProt Q9NR61 27-524)
T3 construct: Bought recombinant protein; also called rHuman DLL4; delta-like protein 4

- ECL signal [1]: 1790
- ECL signal [2]: 1140
- ECL signal [3]: 2540
B1: Fab VH1-46_IGHD6-13*01_IGHJ4*01 & B3_IGKJ1*01 (Fab, V domains shown)
VH: QVQLVQSGAEVKKPGASVKVSCKASGYTFTSYYMHWVRQAPGQGLEWMGIINPSGGSTSYAQKFQGRVTMTRDTSTSTVYMELSSLRSEDTAVYYCAREGYSSSWYDYFDYWGQGTLVTVSS
VL: not shown
notes: Expressed in E. coli as Fab: heavy chain with CH1 plus Flag and His tags from Plasmid A, kappa light chain constant region from Plasmid C; also called Fab No. 6
